For experiment [1], the target named is T1, OPRM1-PK (Homo sapiens, UniProt P35372).
T1 construct: PK (beta-galactosidase ED); expressed in transfected cells; host or cells: U2OS
In words: Arrestin-EA EFC agonist assay, U2OS cells expressing OPRM1-PK only. The experiment is classed as cell-based. As to conditions: U2OS OPRM1-PK only.
Procedure: (§1) For all assays, 10,000 cells per well were seeded in 20 μL media and incubated overnight in 1% Fetal Bovine Serum and appropriate basal media (F-12 or DMEM). For agonist assays, 5 μL compound was added to cells and incubated at Room Temp. […] Arrestin-EA complex formation with the GPCR was detected with 50% (v/v) of PathHunter Detection Reagent (Dx 93-0001, PathHunter reagents are available from DiscoveRx, Corp., Fremont, Calif.) (Lysis buffer active ingredient 2% CHAPS, Emerald II and Galacton star are from Applied Biosystems.) Data was read on Packard Victor 2 or PerkinElmer ViewLux readers and analyzed using GraphPad Prism 4.

In experiment [2] the target is T2, OPRM1-PK and PROKR2 (Homo sapiens, UniProt Q8NFJ6).
T2 construct: expressed in transfected cells; host or cells: U2OS
In words: Transactivation assay, U2OS cells co-expressing OPRM1-PK and PROKR2 (FIG. 14C). It counts as cell-based.
Procedure: as §1

T1 sequence (P35372 whole entry): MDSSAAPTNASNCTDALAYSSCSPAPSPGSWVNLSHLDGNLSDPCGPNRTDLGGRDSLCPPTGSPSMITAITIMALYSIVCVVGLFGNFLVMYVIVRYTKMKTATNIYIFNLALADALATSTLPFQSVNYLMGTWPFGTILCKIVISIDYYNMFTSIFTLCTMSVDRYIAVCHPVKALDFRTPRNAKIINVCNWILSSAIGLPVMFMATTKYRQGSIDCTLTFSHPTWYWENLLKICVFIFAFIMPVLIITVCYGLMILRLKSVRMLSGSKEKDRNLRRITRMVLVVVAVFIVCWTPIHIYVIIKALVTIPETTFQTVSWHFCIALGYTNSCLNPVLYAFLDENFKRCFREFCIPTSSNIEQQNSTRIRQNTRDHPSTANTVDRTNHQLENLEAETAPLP
T2 sequence (Q8NFJ6 whole entry, species assumed): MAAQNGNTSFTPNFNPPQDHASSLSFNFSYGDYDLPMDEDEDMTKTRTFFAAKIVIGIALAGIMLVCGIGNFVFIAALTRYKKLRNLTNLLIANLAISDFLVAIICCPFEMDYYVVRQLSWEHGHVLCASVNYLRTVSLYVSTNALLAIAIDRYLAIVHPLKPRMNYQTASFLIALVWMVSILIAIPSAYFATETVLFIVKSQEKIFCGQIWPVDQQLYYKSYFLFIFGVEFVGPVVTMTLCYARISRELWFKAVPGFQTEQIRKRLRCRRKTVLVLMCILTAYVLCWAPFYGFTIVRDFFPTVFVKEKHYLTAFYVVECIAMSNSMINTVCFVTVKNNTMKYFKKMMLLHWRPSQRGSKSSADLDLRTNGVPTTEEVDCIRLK

B1: EG-VEGF: PROKR2 ligand, EG-VEGF/prokineticin (protein)
chain: AVITGACERDVQCGAGTCCAISLWLRGLRMCTPLGREGEECHPGSHKVPFFRKRKHHTCPCLPNLLCSRFPDGRYRCSMDLKNINF
Regarding B1, the results for the 50% effective concentration (EC50) in experiment [1] and in experiment [2] (FIG. 14C) were 32.1 nM and 52.2 nM, respectively. Moreover, the HILLSLOPE in experiment [1] stood at 1.011; in experiment [2] (FIG. 14C), 1.328. Besides, the BOTTOM in experiment [1] (curve fit, signal) is 25.82; in experiment [2] (curve fit, signal, FIG. 14C), 294.3. Moreover, the TOP in experiment [1] (curve fit, signal) was found to be 57.34; in experiment [2] (curve fit, signal, FIG. 14C), 9875. Also, the LOGEC50 was −7.493 in experiment [1] (log of EC50, negative sign as printed) and −7.282 in experiment [2] (log of EC50, negative sign as printed, FIG. 14C). Moreover, the “transactivation response” value in experiment [2] (OPRM1-PK and PROKR2 coexpressed) is recorded as “weak response”.

What is called EC50 is the concentration giving half of the maximal effect. A low value points to a more potent agent.

(Values after patent US20100120063A1, “GPCR Arrestin Assays” (DISCOVERX CORPORATION, priority 2008, published 2010).)
